We go through two substances from PMC3919171.

The target in assay [1] is collagen VI monomer with the murine collagen VI α3 chain (N9-C5) carrying the R1061Q mutation (mouse | human (endogenous in SaOS-2)). The experiment in a line: non-reducing agarose/polyacrylamide composite gel electrophoresis with immunoblot; culture medium (4-14 days) and cell extracts of transfected SaOS-2 cells, SDS loading buffer with 2 M urea, non-reducing, 0.5% agarose/2.4% polyacrylamide; detected with an antibody against the α3 C terminus; sizes from purified collagen VI as a standard; monomers to tetramers. In general terms: Immunoblotting shows a protein as a band on a membrane.

The target of assay [2] is collagen VI monomer with the wild-type murine collagen VI α3 chain (N9-C5) (mouse | human (endogenous in SaOS-2)) (UniProt P12109). The assay is described as above.

For “collagen VI monomer with the murine collagen VI α3 chain (N9-C5) carrying the R1061Q mutation (from UniProt P12109 20-1028; P12110 21-1019) (complex)”, in assay [1], the stoichiometry N came to 4.
In the case of “collagen VI monomer with the wild-type murine collagen VI α3 chain (N9-C5) (from UniProt P12109 20-1028; P12110 21-1019) (complex)”, the stoichiometry N in assay [2] was found to be 4.

As usually defined, the stoichiometry N is a count of units in the complex or per binding partner.
